Data on five compounds can be found in publication PMC10127198, “Pseudouridine-Modifying Enzymes SapB and SapH Control Entry into the Pseudouridimycin Biosynthetic Pathway” (ACS Chemical Biology, 2023).

Data set [1] addresses T1, SapH (Streptomyces albus, UniProt A0ACH0CL42).
T1 construct: gene NR995_03130; homodimer
The data set is described as follows: X-ray crystallography, […] Å. The class given is binding. Particulars: active site at dimer interface; non-covalent (no link to Lys289); crystals pH 7.5, 20 °C.

The target in data set [2] is T1, SapH. The data set is described as follows: relative activity by HPLC, coupled with SapB. The format is biochemical. Particulars: amino donor 5 mM, 1.5 mM uridine, 1 μM SapB, 2 μM SapH, pH 7.5.
For data set [3], the system named is O=c1[nH]cc([C@@H]2O[C@H](CO)[C@@H](O)[C@H]2O)c(=O)[nH]1. In words: purified protein. Particulars: 50 mM Tris-HCl pH 7.5, 10 mM NaCl, 10 mM KCl, 5 mM MgCl2, O2 as electron acceptor.
The test system of data set [4] is O=c1[nH]c(=O)c([C@@H]2O[C@H](CO)[C@@H](O)[C@H]2O)co1. The data set is described as follows: purified protein. The settings on record: 50 mM Tris-HCl pH 7.5, 10 mM NaCl, 10 mM KCl, 5 mM MgCl2, O2 as electron acceptor.
The target in another data set is T2, SapB (Streptomyces albus, UniProt A0ACH0CL45).
T2 construct: gene NR995_03120; N-terminal His6-tag, codon-optimized synthetic gene in pBADHisBd, E. coli TOP10
T2 sequence (A0ACH0CL45 1-509): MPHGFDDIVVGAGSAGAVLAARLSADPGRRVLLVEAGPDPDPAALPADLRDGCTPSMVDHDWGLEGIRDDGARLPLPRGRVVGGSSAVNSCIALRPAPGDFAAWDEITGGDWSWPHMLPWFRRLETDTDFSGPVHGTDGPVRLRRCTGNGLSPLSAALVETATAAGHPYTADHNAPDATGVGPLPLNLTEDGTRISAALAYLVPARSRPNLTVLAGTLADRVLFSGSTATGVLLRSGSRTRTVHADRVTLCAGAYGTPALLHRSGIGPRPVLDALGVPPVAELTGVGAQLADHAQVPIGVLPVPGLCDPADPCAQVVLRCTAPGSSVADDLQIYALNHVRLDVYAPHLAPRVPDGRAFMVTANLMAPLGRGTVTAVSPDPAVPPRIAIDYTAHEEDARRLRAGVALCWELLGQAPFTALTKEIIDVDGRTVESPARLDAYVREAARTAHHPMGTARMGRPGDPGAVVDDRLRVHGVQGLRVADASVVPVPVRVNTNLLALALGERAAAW
The data set is described as follows: LC/MS of cofactor released by boiling. The class given is binding. Particulars: copurified, tightly bound.

For data set [5], the target named is SapH (Streptomyces albus DSM 40763). In words: crystal structure; hanging drop vapour diffusion at 20 °C; SapH 9.9 mg/mL in 50 mM TAPS pH 8.5, 250 mM NaCl, 10% glycerol; well 0.1 M BisTRIS-propane, 0.2 M Na-K-phosphate, 27.5% PEG3350, pH 7.5; space group P212121; dimer in the asymmetric unit.

T1 sequence (A0ACH0CL42 entry or part of it): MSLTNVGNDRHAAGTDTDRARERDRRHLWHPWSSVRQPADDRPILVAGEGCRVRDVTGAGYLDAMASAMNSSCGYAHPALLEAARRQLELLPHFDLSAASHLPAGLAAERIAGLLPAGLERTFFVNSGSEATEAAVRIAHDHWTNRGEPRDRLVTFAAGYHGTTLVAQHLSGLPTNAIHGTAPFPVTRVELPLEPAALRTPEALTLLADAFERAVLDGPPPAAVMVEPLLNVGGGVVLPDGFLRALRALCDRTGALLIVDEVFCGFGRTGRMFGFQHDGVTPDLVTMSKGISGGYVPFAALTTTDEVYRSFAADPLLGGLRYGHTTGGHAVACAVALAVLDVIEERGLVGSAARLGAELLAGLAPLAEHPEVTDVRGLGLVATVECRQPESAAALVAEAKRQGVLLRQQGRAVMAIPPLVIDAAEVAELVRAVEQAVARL

In the case of `Cc1ncc(COP(=O)(O)O)c(CN)c1O` [pyridoxamine-5′-phosphate], the “X-ray crystallography, 1.55 Å” value at SapH [1] was “The bound PLP was modeled as pyridoxamine, according to the observed electron density map”.
`N=C(N)NCCC[C@H](N)C(=O)O` [arginine]: the “relative activity by HPLC, coupled with SapB” value on SapH [2] is “shows preference for methionine, phenylalanine, and arginine”.
In general, Km refers to the concentration of substrate that gives half-maximal velocity. One may read the kcat as the maximal rate divided by the concentration of active sites. Broadly, the kcat/Km is the second-order rate constant that governs catalysis at low substrate concentration. Turning to SapB (Streptomyces albus), in data set [3], the Km worked out at 34 ± 5 µM, the kcat worked out at 0.019 s⁻¹ and the kcat/Km was 550 M⁻¹ s⁻¹. Moreover, in data set [4], the Km is 181 ± 25 µM, the kcat stood at 0.0172 s⁻¹ and the kcat/Km turned out to be 95 M⁻¹ s⁻¹.
`Cc1cc2nc3c(=O)[nH]c(=O)nc-3n(C[C@H](O)[C@H](O)[C@H](O)COP(=O)(O)OP(=O)(O)OC[C@H]3O[C@@H](n4cnc5c(N)ncnc54)[C@H](O)[C@@H]3O)c2cc1C` [flavin adenine dinucleotide]: the “LC/MS of cofactor released by boiling” value on SapB is given as “LC/MS) analysis identified the SapB cofactor to be flavin adenine dinucleotide (FAD)”.
A word on the stoichiometry N: it is the number of molecules, sites or subunits per partner or assembly. For the compound SapH (enzyme), the stoichiometry N in data set [5] stood at 2.
